Measurements from the DeepSol protein solubility set.

Assay: soluble on expression in E. coli; label from the status in PepcDB or PDB records

Sequence	soluble on expression in E. coli
MDDDILGLEDVTASEAFKIIYELSKASKIDADRSDAAKAQFTLLHSTLLQALQAERDLLDQAKALKRQKEEQEAAITGAGGVPGADDIDQLREDVEAALGEAALAQERQQLLQLEVTDLQRQRNDLGARMEELAAEHAAALQPVIAQARGEAAALVDELDEERRRVEAAHGELEDMKSKLAAVQEEIEAMGETKAVERANLVKVDPLPDKARRQSEAVAAILKSVQGQLESMNARYGEHDTQYKTAAEREQQLTEEHTKMLTALERGRVQVESKARHADDVRKDVELASIEADKILADQVELDLRVKNLALELKAESDHLNRRQREKELMLRQYRVADQQLKDARDMLPNLKFQVEQMHRDVNTLEARRRAQSRELSDVKRELDIQMAAFLHEEADGKEKVALFQLTYKEVAALEAELAALKREEAERDTILRDLGSQRDRVALAIAQKLSKVKDVQMTSRIKEVELAELKKIRKEVGRRIRDFEKLYDLVKNQRNKFVNLIQAASQSTTEMKDKLKVLQNELDILQNEVGIKDKLLQQQHTQHAANIAERDQLRVELGRLGMVFRDKQAVVDEQIAEVDKLNAIINGCEKEMLRLKKQYELVIEARNYTGIMLIDRNDELCVLYEKANILDEVIKSGQLELMRREDEARLLRLEVGELERSIGVTRRLVPSVPLLDNDVAALQKALFEARREAEALSLALENPSNQGRWRLLEGKIPDREELSAKIQALEERLNDKKEQLLEKELILEEITSLSDKLRVQAAEGRADTLELAQRVNEYQSKLRAVTRKIMATVSELSMYQASALKLGAEKEELEGAVSLASQRLEAGEPPTDDAEREWYRLERERHTVDAMAEERRAVAAALDARVAEVQSTAEPRPNAYIPEQLGIPKPYGSFAPFKPQEAGSTMRHIRKPSPKEVVI	not soluble
MDDPVADQPDGTDETPDGDTAGSSPIGLADAQARAREAVAELLEHPFDGIITAESGADGGWRILAEVVERSAVPDTQDIIGRYEITLDDGGRVLEHHHHHH	not soluble
MDDRGGSFVAVRRISQGLERGSVYHSSSAEVVAGSAAWLGRGLSCVCVQGRDGDPRPSFDLTPAQEECLQRLQSRIDVAYDSSIPQHQEALKDLWKLAFPEEELHGIVSDQWKEMGWQGKDPSTDFRGGGFISLENLLYFARKFPKSFHGLLRKQVGDRSVWEYPFAVAGINITFMLIQMLDLEAVNESAFDLLYCIAFKLMDQQWLSMRASYMEFNTVMKSTRRQLEREIMIEDITSLEDLPSYSLLSQ	soluble
MDEDLTPIPSLTPDIQKFRIYGRVTYFQENKNGNGIHFLLTDSLGCSIKCIVTVEAVVKHCKDQLKLGQPCYVRGGRVDYHDKRYPNRTGHDCVIFNNNIAEIQITTVATNFVTPIATLNAPKIIYKVHGMITQRGKYSKKEVFCFVITDDKGDSVNVAAFCEFADWLYENLKEKQWYYLYCGLIEKVCKPDDQKEPNNVIILHNKCQIETPSDPSVADPFAELDDLNCTINKMKL	not soluble
MDEFPPIFIISLKDSPRKNIIAERLNALGLSFNFFDAIYGKELSKKQLSEINYDFYIQKFNARKRLTLGEIGCAISHIKLYEYIVKNNINEAIILEDDAIVSIYFKDIICDALKKISCKYEILFLDHGKAKIFPFTRSLVERYRLAKYISPSKKSKRIIIRTTAYIITLNGARKLLNYAYPIRMPSDYLTGTLQLTGINAYGIEPPCVFGGPISEIDQIEDRYCLEHHHHHH	not soluble
MDEGIRASGGIRACQTGKQKQGRKRPVTGKKRIVVGMSGGVDSSVTAWLLKQQGHEVIGVFMQNWEDDNDDEYCSIKQDALDAMSVADIVGIDMEIVNFAKEYKDRVFSYFLKEYSAGRTPNPDVLCNAEIKFKAFLDYAMELGADCIATGHYARKLEQDGTHYLMKAVDHTKDQSYFLYRLQQHQLAKAIFPLGDIRKTEVRRLAEEAGLPTAAKKDSTGICFIGERPFREFLQRYLPTSPGQMVTPDGKVVGEHIGLMYYTLGQRKGLTIGGSRDGNGEPWFVAGKDIPGNKLIVVQGHDHPLLLKPTLSMADLSWTLPDAPAPGEYSAKNRYRMADAACTLSPIVDGQASLTFQEKQWAVTPGQSAVLYHGDICLGGGIIQLEHHHHHH	not soluble
MDFELCPKFEKTFSILGKKWNGLIIDVLLEDGPQRFKNLARRIPKCSDRVLVVRLKELEENGIVSRVTHCDSALIEYRLTTKGQDLRQVMDTVHNWSDKWFSPAES	not soluble
MDFPTISRSPSGPPAMDLEGPRDILVPSEDLTPDSQWDPMPGGPGSLSRMELDESSLQELVQQFEALPGDLVGPSPGGAPCPLHIATGHGLASQEIADAHGLLSAEAGRDDLLGLLHCEECPPSQTGPEEPLEPAPRLLQPPEDPDEDSDSPEWVEGASAEQEGSRSSSSSPEPWLETVPLVTPEEPPAGAQSPETLASYPAPQEVPGPCDHEDLLDGVIFGARYLGSTQLVSERNPPTSTRMAQAREAMDRVKAPDGETQPMTEVDLFVSTKRIKVLTADSQEAMMDHALHTISYTADIGCVLVLMARRRLARRPAPQDHGRRLYKMLCHVFYAEDAQLIAQAIGQAFAAAYSQFLRESGIDPSQVGVHPSPGACHLHNGDLDHFSNSDNCREVHLEKRRGEGLGVALVESGWGSLLPTAVIANLLHGGPAERSGALSIGDRLTAINGTSLVGLPLAACQAAVRETKSQTSVTLSIVHCPPVTTAIIHRPHAREQLGFCVEDGIICSLLRGGIAERGGIRVGHRIIEINGQSVVATPHARIIELLTEAYGEVHIKTMPAATYRLLTGQEQPVYL	soluble
MDFVTGAVAHRRKFGGGRGQSIAKAVGLKQGVTPKVVDGTAGLGRDAFVLASLGCTVTMVERHPVVAALLEDGLRRAYQDAEIGDWMRERMQLFHGSSLEALAKLEQGVDVVYLDPMYPHRDKSALVKKEMRVFQTLVGADLDADGLLAPAMALASKRVVVKRPDYAEDLAGVKPSMVIETKKNRFDVYVKSAMKLEHHHHHH	not soluble
MDFYYLPGSAPCRAVQMTAAAVGVELNLKLTNLMAGEHMKPEFLKLNPQHCIPTLVDEDGFVLWESRAIQIYLVEKYGAHDADLAERLYPSDPRRRAVVHQRLFFDVAVLYQRFAEYYEPQIFGQKVPVGDPGRLRSMEQALEFLNTFLEGEQYVAGGDDPTIADLSILATIATYEVAGYDLRRYENVQRWYERTSAIVPGADKNVEGAKVFGRYFTQK	soluble
MDGFQLGNNSPKEITVFCDESRPEALRAASITQRYLCIGSIWVDRERVREVNEEIRALQIKYSKMGEVKWGKVSPSSIQFNCELIDLFFDERFNLQFRAIVVDNQKVDLSYHNNDQELGFYKFYYQMLKHKLINGCSYRIYCDLKTNKMRGRASTLEHYLQTYCLGSVEMVQLLPSNDLPLMQLTDLLLGAVSTKFNFRIPKSPAKNEVISTIERHIGHQIQPTRKNEQKFNVFCIEPGMGR	not soluble
MDGKLLWSFNSGDAVRSVAISRDGDYVATGSANNYVYLLDSEGKTLWGKKTGSLINSVTMTPNAYYVAAGGSNYNVYLFDRKGEFSWMHNPGYWVSSVSLSSNGSHLAAGSFDDRIYLFNLTGAKLWDYQVKDDVYAVEIAPDSSFIAAGSWDDSIYALNMSGKELEHHHHHH	not soluble
MDGKRVWLSDDELTRFIEQAETPHQRLAFLLAGRVGLRRSEIIEVCPQDLVDGPTGDHIRVWESYAKRDKYREPPVPQEVVTIAETLAYQQDDDEPLLDVAGSTVYRWVRRAADELEEETGDRGWQYLDVHDLRRTWGTYLLEQGVIPSVVMSFGGWEDWDTFRKHYLGLEHHHHHH	not soluble
MDGYTGSHVVRCALRLAPLVFVRPGELRKAEWKDIDLDGGEWRYTVTKTNTPHIVPLSTQAVEILKELQALTGRSRFVFPGARTNGRPMSDNAILAALRRMGIDKEEMSGHGFRAMARTILDEVLGVRPDFIEHQLAHSVRDPLEHHHHHH	not soluble
MDHDTEVIVKDFNSILEELTFNSRPIITTLTKLAEENISCAQYFVDAIESRIEKCMPKQKLYAFYALDSICKNVGSPYTIYFSRNLFNLYKRTYLLVDNTTRTKLINMFKLWLNPNDTGLPLFEGSALEKIEQFLIKASAAALE	soluble
MDIILGIRVQDSVILASSKAVTRGISVLKDSDDKTRQLSPHTLMSFAGEAGDTVQFAEYIQANIQLYSIREDYELSPQAVSSFVRQELAKSIRSRRPYQVNVLIGGYDKKKNKPELYQIDYLGTKVELPYGAHGYSGFYTFSLLDHHYRPDMTTEEGLDLLKLCVQELEKRMPMDFKGVIVKIVDKDGIRQVDDFQAQ	soluble
